{"source": "patent US20180119149", "key": {"[1]": {"target": "HER2 (ErbB2) (Homo sapiens) (UniProt P04626)"}, "PDGF-BB (Homo sapiens) [2]": {"target": "PDGF-BB (Homo sapiens) (UniProt P01127)", "sequence (P01127 82-190)": "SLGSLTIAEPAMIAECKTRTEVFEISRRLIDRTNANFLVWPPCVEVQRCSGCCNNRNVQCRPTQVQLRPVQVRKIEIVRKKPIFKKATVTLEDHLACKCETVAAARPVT", "settings": "unselected library on PDGF-BB beads, with formaldehyde cross-linking"}, "PD-L1": {"target": "PD-L1 (UniProt Q9NZQ7)", "sequence (Q9NZQ7 19-238)": "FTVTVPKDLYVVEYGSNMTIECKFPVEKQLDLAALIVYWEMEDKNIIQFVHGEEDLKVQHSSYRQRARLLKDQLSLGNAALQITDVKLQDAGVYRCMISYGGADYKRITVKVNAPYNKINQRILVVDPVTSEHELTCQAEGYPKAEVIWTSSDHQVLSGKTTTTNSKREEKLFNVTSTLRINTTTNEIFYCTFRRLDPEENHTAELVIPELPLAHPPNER", "settings": "bulk Kd, bead-based fluorescence"}, "ubiquitin": {"target": "ubiquitin (UniProt P0CG48)", "settings": "bulk Kd, bead-based fluorescence"}, "IgE (Homo sapiens)": {"test_system": "IgE (Homo sapiens)", "settings": "bulk Kd, bead-based fluorescence"}, "[3]": {"target": "HER2 (ErbB2) (Homo sapiens) (UniProt P04626)", "settings": "bulk Kd, with formaldehyde cross-linking; about 5-fold higher Kd without"}, "EGFR": {"target": "EGFR (UniProt P00533)", "settings": "HER2 about 4 times higher"}, "ErbB4 (HER4)": {"target": "T1, ErbB4 (HER4) (UniProt Q15303)", "T1 sequence": "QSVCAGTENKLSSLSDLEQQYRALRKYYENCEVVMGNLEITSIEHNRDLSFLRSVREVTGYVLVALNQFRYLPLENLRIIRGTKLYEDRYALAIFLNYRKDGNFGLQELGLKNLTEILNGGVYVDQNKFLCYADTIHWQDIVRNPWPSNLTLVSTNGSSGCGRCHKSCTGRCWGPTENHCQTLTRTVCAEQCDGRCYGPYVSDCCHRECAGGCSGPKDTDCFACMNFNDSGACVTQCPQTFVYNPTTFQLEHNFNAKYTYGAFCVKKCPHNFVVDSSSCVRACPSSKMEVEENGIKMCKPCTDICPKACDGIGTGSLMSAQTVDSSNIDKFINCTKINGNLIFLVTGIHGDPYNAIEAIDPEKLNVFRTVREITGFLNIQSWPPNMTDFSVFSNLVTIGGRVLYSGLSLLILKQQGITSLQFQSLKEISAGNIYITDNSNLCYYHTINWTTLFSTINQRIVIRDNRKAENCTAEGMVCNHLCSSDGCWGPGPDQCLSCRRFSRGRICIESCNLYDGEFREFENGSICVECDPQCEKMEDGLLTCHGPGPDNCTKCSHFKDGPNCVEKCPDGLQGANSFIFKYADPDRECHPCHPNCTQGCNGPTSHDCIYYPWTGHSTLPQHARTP", "settings": "HER2 about 4 times higher"}, "ErbB3 (HER3)": {"target": "ErbB3 (HER3) (UniProt P21860)", "sequence (P21860 20-643)": "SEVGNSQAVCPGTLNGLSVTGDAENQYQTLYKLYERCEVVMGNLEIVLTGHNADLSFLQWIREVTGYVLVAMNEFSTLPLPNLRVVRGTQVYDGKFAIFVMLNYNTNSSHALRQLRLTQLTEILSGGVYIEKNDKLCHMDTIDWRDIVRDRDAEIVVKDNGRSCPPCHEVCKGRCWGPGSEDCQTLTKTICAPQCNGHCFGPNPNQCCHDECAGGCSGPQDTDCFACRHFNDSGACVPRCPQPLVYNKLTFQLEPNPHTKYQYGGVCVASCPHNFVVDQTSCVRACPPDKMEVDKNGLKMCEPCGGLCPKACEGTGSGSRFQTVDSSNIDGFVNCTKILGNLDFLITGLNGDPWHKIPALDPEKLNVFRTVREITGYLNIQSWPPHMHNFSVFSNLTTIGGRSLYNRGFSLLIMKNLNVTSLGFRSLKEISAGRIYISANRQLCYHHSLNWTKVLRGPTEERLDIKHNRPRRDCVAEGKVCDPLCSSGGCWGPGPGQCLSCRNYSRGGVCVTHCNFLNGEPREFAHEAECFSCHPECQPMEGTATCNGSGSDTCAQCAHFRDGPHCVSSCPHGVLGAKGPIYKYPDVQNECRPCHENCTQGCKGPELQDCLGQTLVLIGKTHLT", "settings": "HER2 about 4 times higher"}, "PDGF-BB (Homo sapiens) [4]": {"target": "PDGF-BB (Homo sapiens) (UniProt P01127)", "settings": "bulk Kd, bead-based fluorescence"}, "CTLA-4": {"target": "CTLA-4 (UniProt P16410)", "sequence (P16410 36-161)": "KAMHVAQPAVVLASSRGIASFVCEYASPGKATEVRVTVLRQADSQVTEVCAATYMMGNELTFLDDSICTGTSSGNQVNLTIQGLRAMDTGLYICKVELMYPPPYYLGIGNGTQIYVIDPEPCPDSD", "settings": "bulk Kd, bead-based fluorescence"}}, "note": "Where two headings read alike, the source gives them in different places."}
{"sequence": "AGCAGCACAGAGGTCAGATGNNNNNNNNNNNNNNNNNNNNNNNNNNNNNNNNNNNNNNNNCCTATGCGTGCTACCGTGAA [unselected ssDNA library (N40)]", "values": [{"measurement": "Kd", "setting": "[1]; no obvious binding", "value": "> 1", "unit": "µM"}, {"measurement": "binding signal", "setting": "PDGF-BB (Homo sapiens) [2]", "value": "< 2", "unit": "% bound"}]}
{"sequence": "AGCAGCACAGAGGTCAGATGNNNNNNNNNNNNNNNNNNNNNNNNNNNNNNNNNNNNNNNNCCTATGCGTGCTACCGTGAA [PD-L1 round 3 pool]", "values": [{"measurement": "Kd", "setting": "PD-L1", "value": 0.0155, "unit": "µM"}]}
{"sequence": "AGCAGCACAGAGGTCAGATGNNNNNNNNNNNNNNNNNNNNNNNNNNNNNNNNNNNNNNNNCCTATGCGTGCTACCGTGAA [ubiquitin round 3 pool]", "values": [{"measurement": "Kd", "setting": "ubiquitin", "value": 0.0119, "unit": "µM"}]}
{"sequence": "AGCAGCACAGAGGTCAGATGNNNNNNNNNNNNNNNNNNNNNNNNNNNNNNNNNNNNNNNNCCTATGCGTGCTACCGTGAA [IgE round 3 pool]", "values": [{"measurement": "Kd", "setting": "IgE (Homo sapiens)", "value": 0.0084, "unit": "µM"}]}
{"sequence": "AGCAGCACAGAGGTCAGATGNNNNNNNNNNNNNNNNNNNNNNNNNNNNNNNNNNNNNNNNCCTATGCGTGCTACCGTGAA [HER2 round 3 pool]", "values": [{"measurement": "Kd", "setting": "[3]", "value": 0.0068, "unit": "µM"}, {"measurement": "binding signal (fraction of HER2 signal)", "setting": "EGFR", "value": 0.25}, {"measurement": "binding signal (fraction of HER2 signal)", "setting": "ErbB4 (HER4)", "value": 0.25}, {"measurement": "binding signal (fraction of HER2 signal)", "setting": "ErbB3 (HER3)", "value": 0.25}]}
{"sequence": "AGCAGCACAGAGGTCAGATGNNNNNNNNNNNNNNNNNNNNNNNNNNNNNNNNNNNNNNNNCCTATGCGTGCTACCGTGAA [PDGF-BB round 3 pool]", "values": [{"measurement": "Kd", "setting": "PDGF-BB (Homo sapiens) [4]", "value": 0.0019, "unit": "µM"}]}
{"sequence": "AGCAGCACAGAGGTCAGATGNNNNNNNNNNNNNNNNNNNNNNNNNNNNNNNNNNNNNNNNCCTATGCGTGCTACCGTGAA [HER2 round 1 pool]", "values": [{"measurement": "Kd", "setting": "[1]; bulk Kd, with formaldehyde cross-linking", "value": 0.0221, "unit": "µM"}]}
{"sequence": "AGCAGCACAGAGGTCAGATGNNNNNNNNNNNNNNNNNNNNNNNNNNNNNNNNNNNNNNNNCCTATGCGTGCTACCGTGAA [CTLA-4 round 3 pool]", "values": [{"measurement": "Kd", "setting": "CTLA-4", "value": 0.0104, "unit": "µM"}]}
